Experimental findings from patent US20240400618A1 are described below.
Note: test concentration or dose not given here.

One assay deals with pxEBN4-ACE2-AAA-His (human) (UniProt Q9BYF1).
For “pxENBCP19-FLS-CT-His-StrepTagII (from UniProt P0DTC2 15-1213) (ligand)”, the Response, shift in Wavelength (nm) is 0.042 nm. Still for that read-out and setting: the result for “pxENBCP17-FLS-CT-His-SBP (from UniProt P0DTC2 15-1213) (ligand)” reads 0.0382 nm. Same read-out and setting: the result for “pxENBCP20-FLS-CT-His-TST (from UniProt P0DTC2 15-1213) (ligand)” reads 0.0719 nm.

The next assay shares this target. This is another data set of the same source.
“pxENBEP17_TPA_Nuc(1-182)_Spike (15-1216, GAAS, PP)_10xHis (ligand)”: the Response, shift in Wavelength (nm) turned out to be 0.232 nm. On to “pxENB2-His-TEV-FLS-CT (from UniProt P0DTC2 14-1213) (ligand)”, for which the Response, shift in Wavelength (nm) was 0.344 nm. On the same count and under the same terms, then “pxENB1-His-TEV-FLS-TN (from UniProt P0DTC2 14-1213) (ligand)”, with 0.0257 nm. Same read-out and setting: then “pxENB17-RBD-His (from UniProt P0DTC2 319-541) (ligand)”, with 0.301 nm; and “pxENB5-his-TEV-FLS (from UniProt P0DTC2 14-1213) (ligand)”, with 0.185 nm; and “pxENB14-His-TEV-RBD (from UniProt P0DTC2 319-541) (ligand)”, with 0.304 nm. Same read-out and setting: the result for “pxENB9-FLS-CT-His (from UniProt P0DTC2 15-1213) (ligand)” reads 0.555 nm.

As for “pxEBNCP14-tPa-FLS-CT-His (from UniProt P0DTC2 16-1213) (ligand)”, the Response, shift in Wavelength (nm) is 0.529 nm. Same read-out and setting: then “pxENB12-FLS-His (from UniProt P0DTC2 15-1213) (ligand)”, with 0.127 nm; and “pxEBNCP15-mIgGHC-FLS-CT-His (from UniProt P0DTC2 16-1213) (ligand)”, with 0.492 nm. Still for that read-out and setting: the result for “pxENBEP18_Spike_Nuc(1-182)_10xHis (ligand)” reads 0.277 nm; that for “pxENB8-FLS-TN-His (from UniProt P0DTC2 15-1213) (ligand)”, 0.0591 nm; that for “pxEBNCP16-IL2-FLS-CT-His (from UniProt P0DTC2 16-1213) (ligand)”, 0.145 nm.
